Measurements as given in PMC2493294.

Target: t-SNARE complex (syntaxin HT and SNAP-25) (rat) (UniProt P32851)
Assay: EPR spectroscopy

Work on “complexin I C105A R56C, spin-labeled at position 56 (from UniProt P63041 2-134) (natural protein)” yielded a Kd of 50 µM.
